Data as given in the supplement of paper PMC5998384.

Assays:
HeLa Kyoto [1] = assay: solubility change mitosis vs G1/S (difference of NP-40 vs SDS log2 ratios) (log2 ratio difference); higher = more soluble in mitosis
HeLa Kyoto [2] = assay: solubility in G1/S (NP-40 vs SDS abundance) (log2 ratio); higher = more soluble; details: cell cycle stage: G1/S
HeLa Kyoto [3] = assay: melting temperature (median over replicates), in situ; higher = more thermally stable; details: cell cycle stage: mitosis
HeLa Kyoto [4] = assay: thermal stability score vs G1/S (z-score of summed log2 fold changes over temperatures); higher = more thermally stable than in G1/S
[5] = cell cycle stage: early G1 (4.5 h after nocodazole release)
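For melting temperature (median over replicates), in situ in this document: HeLa Kyoto cells synchronized by double thymidine or nocodazole block, proteins quantified by TMT10plex mass spectrometry, three independent biological replicates.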
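For solubility change mitosis vs G1/S (difference of NP-40 vs SDS log2 ratios) in this document: synchronized HeLa Kyoto cells (double thymidine block for G1/S, nocodazole release for mitosis), protein amounts in NP-40 versus SDS lysates quantified by mass spectrometry, three biological replicates.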
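For solubility in G1/S (NP-40 vs SDS abundance) in this document: HeLa Kyoto cells arrested at G1/S by double thymidine block, proteins quantified by TMT10plex mass spectrometry in mild NP-40 versus SDS extracts, three biological replicates.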
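For thermal stability score vs G1/S (z-score of summed log2 fold changes over temperatures) in this document: synchronized HeLa Kyoto cells, proteins quantified by TMT10plex mass spectrometry, three biological replicates, mitosis taken 0.5 h after nocodazole release, G1/S directly after double thymidine block.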

Chain of INPP5B (chain, as listed by the source): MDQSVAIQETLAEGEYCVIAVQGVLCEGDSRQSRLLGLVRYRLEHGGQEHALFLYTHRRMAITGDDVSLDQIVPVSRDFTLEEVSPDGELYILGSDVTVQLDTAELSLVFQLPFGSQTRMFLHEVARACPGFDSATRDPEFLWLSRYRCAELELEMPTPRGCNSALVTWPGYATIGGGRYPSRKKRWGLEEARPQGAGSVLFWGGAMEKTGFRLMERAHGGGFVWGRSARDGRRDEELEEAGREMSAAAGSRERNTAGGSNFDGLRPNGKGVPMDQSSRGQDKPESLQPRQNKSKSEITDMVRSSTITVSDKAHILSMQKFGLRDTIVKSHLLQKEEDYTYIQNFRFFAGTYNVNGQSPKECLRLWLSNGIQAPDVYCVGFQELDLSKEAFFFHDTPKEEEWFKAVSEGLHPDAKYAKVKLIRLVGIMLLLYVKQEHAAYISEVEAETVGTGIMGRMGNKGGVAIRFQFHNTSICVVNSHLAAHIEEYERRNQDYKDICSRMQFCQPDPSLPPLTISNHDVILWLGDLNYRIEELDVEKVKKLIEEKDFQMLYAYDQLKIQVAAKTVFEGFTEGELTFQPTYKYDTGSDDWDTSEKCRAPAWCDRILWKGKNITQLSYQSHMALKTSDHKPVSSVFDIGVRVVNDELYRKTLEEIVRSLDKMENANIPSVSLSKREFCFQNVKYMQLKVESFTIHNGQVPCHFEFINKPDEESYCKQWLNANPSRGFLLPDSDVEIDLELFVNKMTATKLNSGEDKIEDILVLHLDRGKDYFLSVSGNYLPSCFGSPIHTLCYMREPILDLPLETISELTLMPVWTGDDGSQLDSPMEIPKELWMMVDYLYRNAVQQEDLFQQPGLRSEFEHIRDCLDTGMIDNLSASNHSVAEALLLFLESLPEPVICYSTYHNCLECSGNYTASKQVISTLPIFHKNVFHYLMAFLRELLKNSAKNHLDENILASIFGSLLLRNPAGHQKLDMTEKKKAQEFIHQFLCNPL
Chain of CMC2 (chain, as listed by the source): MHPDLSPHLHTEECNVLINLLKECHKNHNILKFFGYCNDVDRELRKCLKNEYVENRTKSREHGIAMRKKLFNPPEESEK
Chain of CSNK1G1 (chain, as listed by the source): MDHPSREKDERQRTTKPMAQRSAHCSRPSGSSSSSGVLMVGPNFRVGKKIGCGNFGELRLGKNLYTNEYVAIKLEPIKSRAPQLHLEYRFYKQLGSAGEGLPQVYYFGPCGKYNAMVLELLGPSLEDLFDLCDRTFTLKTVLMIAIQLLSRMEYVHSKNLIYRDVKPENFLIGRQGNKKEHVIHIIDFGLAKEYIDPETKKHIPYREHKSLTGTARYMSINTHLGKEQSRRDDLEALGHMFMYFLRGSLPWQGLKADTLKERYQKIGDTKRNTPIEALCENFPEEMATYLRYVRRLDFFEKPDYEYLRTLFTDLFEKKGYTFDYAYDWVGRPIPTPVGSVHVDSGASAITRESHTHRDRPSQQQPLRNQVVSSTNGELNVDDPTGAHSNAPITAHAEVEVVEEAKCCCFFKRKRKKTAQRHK

Substance	solubility change mitosis (log2) (HeLa Kyoto [1])	solubility in G1/S (log2) (HeLa Kyoto [2])	melting temperature (HeLa Kyoto [3]) [°C]	thermal stability score (HeLa Kyoto [4]; [5])	thermal stability score (HeLa Kyoto [4]; cell cycle stage: mitosis)
ALAS1	0.00951	0.132			
ASNSD1	0.0506	-0.0495			
ATAD5	0.557	-1.01			
CCDC88C	-0.288	-0.065			
CDK5RAP2	-0.239	-0.157			
CHD6	-0.0389	-0.23			
CMC2	0.0296	0.229			
CSNK1G1	0.0486	-0.3			
DNAJB5	0.00156	0.153			
DOPEY2	-0.106	-0.255			
ELL2	0.0626	0.0976			
GFER	0.192	0.733			
HEATR5A	-0.116	-0.0946			
HELZ2	-0.0125	-0.293			
INPP5B	-0.0113	-0.143			
KDM5A	0.00727	-0.206			
KIAA0586	0.00667	-0.0749			
KMT2B	0.243	-0.355			
MAAAAEERMAEEGGGGQGDGGSSLASGSTQRQPPPPAPQHPQPGSQALPAPALAPDQLPQNNTLVALPIVAIENILSFMSYDEISQLRLVCKRMDLVCQRMLNQGFLKVERYHNLCQKQVKAQLPRRESERRNHSLARHADILAAVETRLSLLNMTFMKYVDSNLCCFIPGKVIDEIYRVLRYVNSTRAPQRAHEVLQELRDISSMAMEYFDEKIVPILKRKLPGSDVSGRLMGSPPVPGPSAALTTMQLFSKQNPSRQEVTKLQQQVKTNGAGVTVLRREISELRTKVQEQQKQLQDQDQKLLEQTQIIGEQNARLAELERKLREVMESAVGNSSGSGQNEESPRKRKKATEAIDSLRKSKRLRNRK [FBXO28]	0.262	0.375			
MAAANPWDPASAPNGAGLVLGHFIASGMVNQEMLNMSKKTVSCFVNFTRLQQITNIQAEIYQKNLEIELLKLEKDTADVVHPFFLAQKCHTLQSMNNHLEAVLKEKRSLRQRLLKPMCQENLPIEAVYHRYMVHLLELAVTFIERLETHLETIRNIPHLAANLKKMNQALAKMDILVTETEELAENILKWRKQQNEVSSCIPKILAEESYLYKHDIIMPPLPFTSKVHVQTINAK [HAUS2]	-0.117	0.261			
MFSWMGRQAGGRERAGGADAVQTVTGGLRSLYLRKVLPLEEAYRFHEFHSPALEDADFENKPMILLVGQYSTGKTTFIRYLLEQDFPGMRIGPEPTTDSFIAVMYGETEGSTPGNALVVDPKKPFRKLSRFGNAFLNRFMCSQLPNQVLKSISVIDSPGILSGEKQRISRGYDFCQVLQWFAERVDRIILLFDAHKLDISDEFSEAIKAFRGQDDKIRVVLNKADQVDTQQLMRVYGALMWSLGKVINTPEVLRVYIGSFWAQPLQNTDNRRLFEAEAQDLFRDIQSLPQKAAVRKLNDLIKRARLAKVHAYIISYLKKEMPSVFGKENKKRELISRLPEIYIQLQREYQISAGDFPEVKAMQEQLENYDFTKFHSLKPKLIEAVDNMLSNKISPLMNLISQEETSTPTQLVQGGAFDGTTEGPFNQGYGEGAKEGADEEEWVVAKDKPVYDELFYTLSPINGKISGVNAKKEMVTSKLPNSVLGKIWKLADCDCDGMLDEEEFALAKHLIKIKLDGYELPSSLPPHLVPPSHRKSLPKAD [EHD4]		0.226	50.4		
MFYAHFVLSKRGPLAKIWLAAHWDKKLTKAHVFECNLESSVESIISPKVKMALRTSGHLLLGVVRIYHRKAKYLLADCNEAFIKIKMAFRPGVVDLPEENREAAYNAITLPEEFHDFDQPLPDLDDIDVAQQFSLNQSRVEEITMREEVGNISILQENDFGDFGMDDREIMREGSAFEDDDMLVSTTTSNLLLESEQSTSNLNEKINHLEYEDQYKDDNFGEGNDGGILDDKLISNNDGGIFDDPPALSEAGVMLPEQPAHDDMDEDDNVSMGGPDSPDSVDPVEPMPTMTDQTTLVPNEEEAFALEPIDITVKETKAKRKRKLIVDSVKELDSKTIRAQLSDYSDIVTTLDLAPPTKKLMMWKETGGVEKLFSLPAQPLWNNRLLKLFTRCLTPLVPEDLRKRRKGGEADNLDEFLKEFENPEVPREDQQQQHQQRDVIDEPIIEEPSRLQESVMEASRTNIDESAMPPPPPQGVKRKAGQIDPEPVMPPQQVEQMEIPPVELPPEEPPNICQLIPELELLPEKEKEKEKEKEDDEEEEDEDASGGDQDQEERRWNKRTQQMLHGLQRALAKTGAESISLLELCRNTNRKQAAAKFYSFLVLKKQQAIELTQEEPYSDIIATPGPRFHII [RAD21]	-0.0219			-1.05	-1.37
MPGIDKLPIEETLEDSPQTRSLLGVFEEDATAISNYMNQLYQAMHRIYDAQNELSAATHLTSKLLKEYEKQRFPLGGDDEVMSSTLQQFSKVIDELSSCHAVLSTQLADAMMFPITQFKERDLKEILTLKEVFQIASNDHDAAINRYSRLSKKRENDKVKYEVTEDVYTSRKKQHQTMMHYFCALNTLQYKKKIALLEPLLGYMQAQISFFKMGSENLNEQLEEFLANIGTSVQNVRREMDSDIETMQQTIEDLEVASDPLYVPDPDPTKFPVNRNLTRKAGYLNARNKTGLVSSTWDRQFYFTQGGNLMSQARGDVAGGLAMDIDNCSVMAVDCEDRRYCFQITSFDGKKSSILQAESKKDHEEWICTINNISKQIYLSENPEETAARVNQSALEAVTPSPSFQQRHESLRPAAGQSRPPTARTSSSGSLGSESTNLAALSLDSLVAPDTPIQFDIISPVCEDQPGQAKAFGQGGRRTNPFGESGGSTKSETEDSILHQLFIVRFLGSMEVKSDDHPDVVYETMRQILAARAIHNIFRMTESHLLVTCDCLKLIDPQTQVTRLTFPLPCVVLYATHQENKRLFGFVLRTSSGRSESNLSSVCYIFESNNEGEKICDSVGLAKQIALHAELDRRASEKQKEIERVKEKQQKELNKQKQIEKDLEEQSRLIAASSRPNQASSEGQFVVLSSSQSEESDLGEGGKKRESEA [APPL1]		0.05	50.4		
MSALEKSMHLGRLPSRPPLPGSGGSQSGAKMRMGPGRKRDFSPVPWSQYFESMEDVEVENETGKDTFRVYKSGSEGPVLLLLHGGGHSALSWAVFTAAIISRVQCRIVALDLRSHGETKVKNPEDLSAETMAKDVGNVVEAMYGDLPPPIMLIGHSMGGAIAVHTASSNLVPSLLGLCMIDVVEGTAMDALNSMQNFLRGRPKTFKSLENAIEWSVKSGQIRNLESARVSMVGQVKQCEGITSPEGSKSIVEGIIEEEEEDEEGSESISKRKKEDDMETKKDHPYTWRIELAKTEKYWDGWFRGLSNLFLSCPIPKLLLLAGVDRLDKDLTIGQMQGKFQMQVLPQCGHAVHEDAPDKVAEAVATFLIRHRFAEPIGGFQCVFPGC [PPME1]	0.0133			-0.13	-0.609
